# Article PMC7694997
# Molecular target: Mycoplasma penetrans methionyl-tRNA synthetase, full-length, M568A variant (Mycoplasma penetrans)
# Assay: SEC-MALS; size exclusion chromatography with multiangle light scattering of the purified enzyme in solution; conditions not told in the main text
substance,measurement,value
"Mycoplasma penetrans methionyl-tRNA synthetase, full-length, M568A variant (enzyme)",stoichiometry N,2
